# T1: hPot1p (Homo sapiens, UniProt Q9NUX5 SEQ:1-634)
# T1 chain: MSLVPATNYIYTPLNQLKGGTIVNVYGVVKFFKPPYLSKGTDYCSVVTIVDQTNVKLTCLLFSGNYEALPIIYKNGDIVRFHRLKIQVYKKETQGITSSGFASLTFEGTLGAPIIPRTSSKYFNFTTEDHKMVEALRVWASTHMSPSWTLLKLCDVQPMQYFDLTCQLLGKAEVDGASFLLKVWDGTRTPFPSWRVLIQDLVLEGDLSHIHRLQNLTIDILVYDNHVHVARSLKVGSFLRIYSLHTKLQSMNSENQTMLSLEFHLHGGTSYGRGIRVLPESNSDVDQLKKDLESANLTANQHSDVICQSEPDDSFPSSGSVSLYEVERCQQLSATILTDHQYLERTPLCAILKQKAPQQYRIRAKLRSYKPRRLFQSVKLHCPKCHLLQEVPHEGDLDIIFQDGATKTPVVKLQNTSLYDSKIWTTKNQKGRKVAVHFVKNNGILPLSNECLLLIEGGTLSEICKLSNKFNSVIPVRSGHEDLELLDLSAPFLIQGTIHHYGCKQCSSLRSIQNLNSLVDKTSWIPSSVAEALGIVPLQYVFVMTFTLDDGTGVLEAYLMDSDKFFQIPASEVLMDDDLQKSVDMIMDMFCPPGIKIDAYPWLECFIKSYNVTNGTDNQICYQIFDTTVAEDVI
# Assays:
# hPot1p [1] = target: T1, hPot1p; experiment: listed as hPot1p-binding; conditions: tags: N-terminal His6 (pQE30), E. coli
# hPot1p [2] = target: T1, hPot1p; experiment: EMSA; conditions as for SpPot1p; conditions: tags: N-terminal His6 (pQE30), E. coli
binder,measurement,setting,value
GGTTAGGGTTAGGGTTAGGG (ssDNA) [PBoli178],binding result,hPot1p [1],binds
TTAGGGTTAGGGTTAGGGTT (ssDNA) [PBoli177],binding result,hPot1p [1],binds
TTAGGGTTAGGGTTAGGGTTAGGGTTAGGG (ssDNA) [human G-strand (TTAGGG)5 (PBoli179)],binding result,hPot1p [2],binds

# — patent publication US20040191820, “Protection-of telomere-1 (POT-1) protein and encoding polynucleotides” (The Regents of the University of Colorado, published 2004)
